# Patent US20100068766A1 (WASEDA UNIVERSITY, published 2010)
# B1: Rad51B protein (other, UniProt O15315-1 1-350, looked up)
# chain: MGSKKLKRVGLSQELCDRLSRHQILTCQDFLCLSPLELMKVTGLSYRGVHELLCMVSRACAPKMQTAYGIKAQRSADFSPAFLSTTLSALDEALHGGVACGSLTEITGPPGCGKTQFCIMMSILATLPTNMGGLEGAVVYIDTESAFSAERLVEIAESRFPRYFNTEEKLLLTSSKVHLYRELTCDEVLQRIESLEEEIISKGIKLVILDSVASVVRKEFDAQLQGNLKERNKFLAREASSLKYLAEEFSIPVILTNQITTHLSGALASQADLVSPADDLSLSEGTSGSSCVIAALGNTWSHSVNTRLILQYLDSERRQILIAKSPLAPFTSFVYTIKEEGLVLQAYGNS
# notes: In the pull-down it was either coupled to Affi-Gel 10 beads or free in solution
# B2: human Ev1 protein (NCBI accession No. AAF21709) (other, UniProt Q9UI08-2 1-418, looked up)
# chain: MATSEQSICQARASVMVYDDTSKKWVPIKPGQQGFSRINIYHNTASNTFRVVGVKLQDQQVVINYSIVKGLKYNQATPTFHQWRDARQVYGLNFASKEEATTFSNAMLFALNIMNSQEGGPSSQRQVQNGPSPDEMDIQRRQVMEQHQQQRQESLERRTSATGPILPPGHPSSAASAPVSCSGPPPPPPPPVPPPPTGATPPPPPPLPAGGAQGSSHDESSMSGLAAAIAGAKLRRVQRPEDASGGSSPSGTSKSDANRASSGGGGGGLMEEMNKLLAKRRKAASQSDKPAEKKEDESQMEDPSTSPSPGTRAASQPPNSSEAGRKPWERSNSVEKPVSSILSRTPSVAKSPEAKSPLQSQPHSRMKPAGSVNDMALDAFDLDRMKQEILEEVVRELHKVKEEIIDAIRQELSGISTT
# notes: range 1-418; His tag removed by thrombin; By gel filtration it eluted at approximately 600 kDa (approximately 13-mer multimer); In the pull-down it was either coupled covalently to Affi-Gel 10 beads or free in solution; also called entire-length Ev1 protein; His-Ev1 (before the tag was removed)
# Key:
# [1] = biological target: B2; experiment: pull-down, Ev1 coupled to Affi-Gel 10 beads, SDS-PAGE, Coomassie stain
# Protocol: Thereafter, the obtained mixture was incubated at 4° C. overnight. The Affi-Gel 10-Ev1 beads were washed 3 times with 500 μl of washing buffer 1 (20 mM potassium phosphate (pH 8.5), 30% glycerol, 700 mM NaCl, 5 mM 2-mercaptoethanol, and 0.05% Triton X-100). The Affi-Gel 10-Rad51B beads were washed 3 times with washing buffer 2 (20 mM HEPES-NaOH (pH 7.3), 30% glycerol, 90 mM NaCl, 2 mM 2-mercaptoethanol, 0.1% Triton X-100, 2 mM ammonium sulfate, and 0.1 mM EDTA). Thereafter, a 50% suspension of such Affi-Gel 10-protein was prepared, and it was then preserved at 4° C.
# In order to carry out a binding assay, an Affi-Gel 10-protein suspension (30 μl) was incubated with 10 μg of an Ev1 or Rad51B protein at room temperature for 150 minutes. Affi-Gel 10-Ev1 beads were washed 4 times with 100 μl of buffer 1 (20 mM potassium phosphate (pH 8.5), 30% glycerol, 700 mM NaCl, 5 mM 2-mercaptoethanol, and 0.3% Triton X-100). Affi-Gel 10-Rad51B beads were washed 4 times with 100 μl of buffer 2 (20 mM HEPES-NaOH (pH 7.3), 30% glycerol, 90 mM NaCl, 2 mM 2-mercaptoethanol, 2 mM ammonium sulfate, 0.1 mM EDTA, and 0.35% Triton X-100). An SDS-PAGE sample treatment buffer (2×) was directly mixed with the washed beads, and the obtained mixture was then subjected to a heat treatment at 100° C. for 2 minutes. […]
# [2] = biological target: the molecule itself; experiment: inferred from the pull-down on Rad51B-bound beads; gel filtration (approximately 600 kDa)
Binder,stoichiometric ratio [1],binding result [2]
B1,1 Rad51B:Ev1 (1:1),–
B2,–,binds
